How the values were obtained:
integrin αvβ3 receptor = integrin αvβ3 receptor (Homo sapiens, UniProt P05106+P06756); experiment: ELISA binding ability of DTPA modified and In-labeled yCD series protein to integrin αvβ3 receptor; settings: before and after modification, marking, purification
From the text: The curve and receptor binding ability parameters (see FIG. 19 and Table 14) are fitted by the binding ability of DTPA-modified protein and integrin αvβ3 receptor through the One site-Specific binding formula in the Graph prism program.
Before the protein is labeled by radioisotope, its enzyme function must be determined, and based on the original enzyme function, it should be examined whether it will be affected during the radioactive marking process. The curve and enzyme kinetic parameters of protein are fitted by the Michaelis-Menten formula in the Graph prism program. […] Whether the yCD and RGD4C-yCD protein detected by the same method will be affected under the conditions of DTPA modification, marking and purification. […] After the completion of the radioactive metal mark, it is necessary to add EDTA of 10-fold protein Moire number and react at room temperature for 1 hour to compete for the radioactive metal isotope indium which is not chelated on DTPA. The EDTA in this step also has the chance to chelate the metal zinc ion of the enzyme catalytic center, the enzyme activity is impaired, so it is necessary to analyze the enzyme activity of In-DTPA-yCD and In-RGD4C-yCD protein after competition with EDTA. […]

[1] = Enzyme kinetic analysis of EcCD series fusion proteins, substrate cytosine; type: biochemical
From the text: FIGS. 11A-11D show the activity and kinetics analysis of EcCD series fusion protein enzymes, and the EcCD series proteins are combined with 5-FC at different concentrations for reaction. Respectively calculate the 5-FU formation reaction rate shown in FIG. 11A, 5-FC consumption reaction rate shown in FIG. 10B, uracil formation reaction rate shown in FIG. 10C and cytosine consumption reaction rate shown in FIG. 10D, substitute Michaelis-Menten formula, and calculate the base mass (Kcat) and Km value catalyzed by each mol enzyme in unit time. […]

[2] = Enzyme activity and kinetic analysis of yCD series recombinant proteins (5-FC converted into 5-FU); type: biochemical; settings: 50 nM protein
Method: FIGS. 2A-2B show the enzyme activities of RGD4C-yCD, yCD, RGD4C-yCD/UPRT and yCD/UPRT proteins to convert 5-FC to 5-FU. 50 nM of RGD4C-yCD, yCD, RGD4C-yCD/UPRT or yCD/UPRT protein reacted with increasing concentrations of 5-FC in phosphate buffered saline solutions. […] The measured data was used to plot the enzyme kinetic curve that takes the substrate concentration [S] as the x-axis and takes the initial reaction rate V0 as the y-axis,
The enzyme activity of 5-FC converted into 5-FU by RGD4C-yCD, yCD, RGD4C-yCD/UPRT and yCD/UPRT is performed. The recombinant protein concentration (50 nM) added with 5-FC at different concentrations. The 5-FC consumption and the generated amount of 5-FU is calculated. The measured data is taken as the x-axis by the substrate concentration [S]; the initial reaction rate V0 is the kinetic curve by making a diagramthe with y-axis (see FIG. 2A and FIG. 2B); the non-linear regression is made by the prism software according to the Michaelis-Menten equation; calculate the enzyme kinetic parameter Km and Vmax. […] It is speculated that the yCD function in each fusion protein is similar, but yUPRT may affect the effects of yCD and 5-FC.

[3] = Enzyme kinetic analysis of EcCD series fusion proteins, substrate 5-FC; type: biochemical
From the text: FIGS. 11A-11D show the activity and kinetics analysis of EcCD series fusion protein enzymes, and the EcCD series proteins are combined with 5-FC at different concentrations for reaction. Respectively calculate the 5-FU formation reaction rate shown in FIG. 11A, 5-FC consumption reaction rate shown in FIG. 10B, uracil formation reaction rate shown in FIG. 10C and cytosine consumption reaction rate shown in FIG. 10D, substitute Michaelis-Menten formula, and calculate the base mass (Kcat) and Km value catalyzed by each mol enzyme in unit time.

HUVEC and U87MG cells = experiment: Fluorescence microscopy of binding and distribution of yCD series fusion proteins; type: cell-based, human; settings: 500 nM protein, 4° C., 2 hours
Method: (FIG. 8A) or 37° C. […] (FIG. 8C) or 37° C. (FIG. 8D) for 2 hours, and then the fluorescent staining is performed for the cells, and the confocal fluorescence microscope is used to observe the distribution of protein in cells. (Green signal: β3 integrin; red signal: anti-His6-tag (also represents the signal of the fusion protein); blue signal: Hoechst 33342 cell nuclear stain) (Calibration scale: 20 μm).
HUVEC and U87MG cells are co-cultured with culture medium containing 500 nM RGD4C-yCD and RGD4C-yCD/UPRT protein at 4° C. and 37° C. for 2 hours, then the cells are stained with fluorescence, and the distribution in the cell is observed by conjugated fluorescence microscopy.

[4] = Enzyme kinetic analysis of yCD series proteins after DTPA modification, marking and purification; type: biochemical
From the text: The enzyme activity of yCD is not affected by DTPA modification.
FIGS. 24A-24B show the kinetic curve of yCD series protein modified, labeled and purified by DTPA. The enzyme activity of the two proteins is not affected by the labeling conditions. After adding EDTA with a 10-fold molar excess of protein, and it is competitively purified, In-DTPA-yCD compared with the original enzyme activity.
The curve and enzyme kinetic parameters (see FIG. 18 and Table 13) are fitted by the […] protein enzyme kinetics through the Michaelis-Menten formula in the Graph prism program.
Before the protein is labeled by radioisotope, its enzyme function must be determined, and based on the original enzyme function, it should be examined whether it will be affected during the radioactive marking process. The curve and enzyme kinetic parameters of protein are fitted by the Michaelis-Menten formula in the Graph prism program. […] Whether the yCD and RGD4C-yCD protein detected by the same method will be affected under the conditions of DTPA modification, marking and purification. […] After the completion of the radioactive metal mark, it is necessary to add EDTA of 10-fold protein Moire number and react at room temperature for 1 hour to compete for the radioactive metal isotope indium which is not chelated on DTPA. The EDTA in this step also has the chance to chelate the metal zinc ion of the enzyme catalytic center, the enzyme activity is impaired, so it is necessary to analyze the enzyme activity of In-DTPA-yCD and In-RGD4C-yCD protein after competition with EDTA. After the EDTA competitive reaction is completed, the enzyme kinetics analysis can be carried out by reducing the EDTA molecule weight through membrane centrifugation method and by replacing the solution with pH 7.0. […] The curve and receptor binding ability parameters of the protein and integrin αvβ3 are fitted under the conditions of DTPA modification, marking and purification by the One site-Specific binding formula in the Graph prism program (see FIG. 25 and Table 18). […] Although the two proteins after marking are greatly affected by the enzyme activity, they still have good binding ability to the integrin αvβ3 receptor. In consideration of the indispensability of EDTA for radiochemical purity, it retains a considerable amount of enzyme activity. In addition, the effect of integrin αvβ3 receptor binding ability is minimal, in combination of cell uptake, biodistribution and angiography experiment, focusing on the evaluation of target results, and the subsequent biological experiment is still carried out by the marking and purification conditions.

Chain of integrin αvβ3 receptor (P06756 31-889 limits assumed): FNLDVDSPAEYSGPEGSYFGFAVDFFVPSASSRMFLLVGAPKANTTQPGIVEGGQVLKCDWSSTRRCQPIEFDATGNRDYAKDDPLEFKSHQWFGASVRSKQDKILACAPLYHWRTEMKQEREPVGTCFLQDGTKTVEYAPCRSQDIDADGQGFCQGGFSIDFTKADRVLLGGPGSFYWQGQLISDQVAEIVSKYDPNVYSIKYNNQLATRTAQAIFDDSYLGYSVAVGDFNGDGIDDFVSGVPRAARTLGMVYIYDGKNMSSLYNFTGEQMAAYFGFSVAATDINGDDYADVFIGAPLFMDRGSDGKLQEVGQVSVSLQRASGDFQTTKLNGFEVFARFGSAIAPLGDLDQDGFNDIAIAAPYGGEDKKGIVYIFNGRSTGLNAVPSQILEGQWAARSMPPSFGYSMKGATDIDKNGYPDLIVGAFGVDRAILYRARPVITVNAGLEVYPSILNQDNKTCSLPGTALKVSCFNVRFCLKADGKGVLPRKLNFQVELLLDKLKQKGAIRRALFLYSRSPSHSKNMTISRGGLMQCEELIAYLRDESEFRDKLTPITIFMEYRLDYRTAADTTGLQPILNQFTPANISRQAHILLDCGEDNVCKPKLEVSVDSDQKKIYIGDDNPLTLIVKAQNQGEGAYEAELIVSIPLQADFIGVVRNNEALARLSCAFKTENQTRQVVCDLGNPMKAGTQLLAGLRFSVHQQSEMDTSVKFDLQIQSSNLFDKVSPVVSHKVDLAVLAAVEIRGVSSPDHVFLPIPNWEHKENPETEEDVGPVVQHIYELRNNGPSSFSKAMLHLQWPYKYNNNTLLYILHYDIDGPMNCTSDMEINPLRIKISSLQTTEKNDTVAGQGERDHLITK
Chain of integrin αvβ3 receptor (P06756 891-1048 partner limits assumed): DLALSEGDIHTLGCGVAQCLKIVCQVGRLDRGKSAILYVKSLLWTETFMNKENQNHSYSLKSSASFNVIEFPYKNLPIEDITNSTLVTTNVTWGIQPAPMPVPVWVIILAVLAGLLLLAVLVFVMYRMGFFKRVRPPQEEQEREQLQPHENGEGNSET
Chain of integrin αvβ3 receptor (P05106 27-788): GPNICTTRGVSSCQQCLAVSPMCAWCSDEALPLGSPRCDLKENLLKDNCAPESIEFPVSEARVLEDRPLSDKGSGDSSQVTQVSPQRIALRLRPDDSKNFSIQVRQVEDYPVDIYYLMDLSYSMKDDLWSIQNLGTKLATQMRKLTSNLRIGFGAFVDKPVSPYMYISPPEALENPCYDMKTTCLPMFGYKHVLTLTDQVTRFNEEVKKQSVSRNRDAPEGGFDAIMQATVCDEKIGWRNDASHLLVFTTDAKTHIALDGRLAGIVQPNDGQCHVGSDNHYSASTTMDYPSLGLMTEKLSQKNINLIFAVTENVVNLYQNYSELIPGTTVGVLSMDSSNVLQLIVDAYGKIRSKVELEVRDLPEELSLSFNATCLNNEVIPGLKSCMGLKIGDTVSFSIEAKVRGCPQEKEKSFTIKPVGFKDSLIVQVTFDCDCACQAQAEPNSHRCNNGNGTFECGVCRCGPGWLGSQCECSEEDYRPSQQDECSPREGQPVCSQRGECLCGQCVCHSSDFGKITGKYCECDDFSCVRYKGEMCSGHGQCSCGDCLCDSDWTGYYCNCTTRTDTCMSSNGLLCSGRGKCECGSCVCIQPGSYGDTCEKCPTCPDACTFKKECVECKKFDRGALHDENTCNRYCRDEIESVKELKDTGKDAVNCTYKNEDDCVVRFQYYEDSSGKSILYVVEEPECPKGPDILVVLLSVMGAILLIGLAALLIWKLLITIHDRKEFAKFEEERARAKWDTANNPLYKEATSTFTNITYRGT

- binding with integrin αvβ3 receptor (integrin αvβ3 receptor): can not be bound
B1: yCD: yeast cytosine deaminase (yCD) (SEQ ID NO: 1), recombinant protein without target molecule (protein)
chain: MVVTGGMASKWDQKGMDIAYEEAALGYKEGGVPIGGCLINNKDGSVLGRGHNMRFQKGSATLHGEISTLENCGRLEGKVYKDTTLYTTLSPCDMCTGAIIMYGIPRCVVGENVNFKSKGEKYLQTRGHEVVVVDDERCKKIMKQFIDERPQDWFEDIGELEHHHHHH
modifications: yCD
- Kcat ([1]; cytosine consumption): 55.6 ± 8.5 s⁻¹
- Km ([1]; cytosine consumption): 4700 ± 1300 µM
- Kcat ([1]; uracil generation): 54.6 ± 1.3 s⁻¹
- Km ([1]; uracil generation): 3900 ± 200 µM
- Km ([2]; calculated by 5-FC consumption): 700 ± 100 µM
- Vmax ([2]; calculated by 5-FC consumption): 175.8 ± 4.7 µM/min
- Km ([2]; calculated by 5-FU formation): 1000 ± 100 µM
- Vmax ([2]; calculated by 5-FU formation): 164.2 ± 4.7 µM/min
- Kcat ([3]; 5-FC consumption (Table 5)): 48.5 ± 1.3 s⁻¹
- Km ([3]; 5-FC consumption (Table 5)): 1000 ± 100 µM
- Kcat ([3]; 5-FU generation): 47.2 ± 0.9 s⁻¹
- Km ([3]; 5-FU generation): 1000 ± 100 µM
- binding and distribution in cells (HUVEC and U87MG cells): can not be effectively bound
- Km [4]: 840 ± 71.9 µM
- Vmax [4]: 264.1 ± 8.256 µM/min

From patent US10947270B2, “Targeted prodrug cytosine deaminase fusion carrier and application thereof” (National Yang-Ming University, priority 2015, dated 2021)
